Assay results taken from PMC12416549 (2024).
Where a chain is given by its changes, count along the chain named. Names may count otherwise. Values belong to the binder of their own block, whether it stands above or below them.

Target: T1, TNFR1 (Homo sapiens, UniProt P19438)
T1 chain: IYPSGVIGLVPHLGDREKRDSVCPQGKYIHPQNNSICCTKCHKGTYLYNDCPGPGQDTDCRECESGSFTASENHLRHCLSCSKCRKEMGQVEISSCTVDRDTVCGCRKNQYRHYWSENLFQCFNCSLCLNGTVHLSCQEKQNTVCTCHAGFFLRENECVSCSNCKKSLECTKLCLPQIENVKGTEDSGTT
Assay: yeast display SC50

apparent Kd (screen): 0.653 nM
B3: D65Y (designed binder)
chain: MTLQELLREEALRRAEAEAFRYALELLAEKFPEQKEYLLDLAEEIESQIRSLSGVDVEDVRKFLYKEWAWVKELLAEHPAELAEVEAARAARLAELRAEVEAKVAA

apparent Kd (screen): 0.79 nM
B8: E101A (designed binder)
chain: B3 chain with Y65D, E101A

apparent Kd (screen): 1.69 nM
B10: A106N (designed binder)
chain: B3 chain with Y65D, A106N

apparent Kd (screen): 0.446 nM
B11: V85C (designed binder)
chain: B3 chain with Y65D, V85C

apparent Kd (screen): 1.05 nM
B12: V85H (designed binder)
chain: B3 chain with Y65D, V85H

apparent Kd (screen): 1.27 nM
B13: V57W (designed binder)
chain: B3 chain with V57W, Y65D

apparent Kd (screen): 0.539 nM
B14: E73R (designed binder)
chain: B3 chain with Y65D, E73R

apparent Kd (screen): 0.653 nM
B15: S53N (designed binder)
chain: B3 chain with S53N, Y65D

apparent Kd (screen): 0.593 nM
B16: D65G (designed binder)
chain: B3 chain with Y65G

apparent Kd (screen): 11.4 nM
B25: R61D (designed binder)
chain: B3 chain with R61D, Y65D

apparent Kd (screen): 0.252 nM
B27: D59P (designed binder)
chain: B3 chain with D59P, Y65D

apparent Kd (screen): 0.79 nM
B31: V57R (designed binder)
chain: B3 chain with V57R, Y65D

apparent Kd (screen): 0.446 nM
B32: A76W (designed binder)
chain: B3 chain with Y65D, A76W

apparent Kd (screen): 0.956 nM
B33: D56M (designed binder)
chain: B3 chain with D56M, Y65D

apparent Kd (screen): 1.05 nM
B39: A106K (designed binder)
chain: B3 chain with Y65D, A106K

apparent Kd (screen): 0.653 nM
B40: E58Q (designed binder)
chain: B3 chain with E58Q, Y65D

apparent Kd (screen): 0.653 nM
B41: A87Q (designed binder)
chain: B3 chain with Y65D, A87Q

Continued, binder first:

B1: K30P (designed binder)
chain: B3 chain with K30P, Y65D
apparent Kd (screen): 0.653 nM

B2: Y37L (designed binder)
chain: B3 chain with Y37L, Y65D
apparent Kd (screen): 7.78 nM

B4: T2I (designed binder)
chain: B3 chain with T2I, Y65D
apparent Kd (screen): 0.653 nM

B5: P32Y (designed binder)
chain: B3 chain with P32Y, Y65D
apparent Kd (screen): 0.539 nM

B6: F31V (designed binder)
chain: B3 chain with F31V, Y65D
apparent Kd (screen): 0.653 nM

B7: L12K (designed binder)
chain: B3 chain with L12K, Y65D
apparent Kd (screen): 0.539 nM

B9: R21H (designed binder)
chain: B3 chain with R21H, Y65D
apparent Kd (screen): 0.49 nM

B17: R21G (designed binder)
chain: B3 chain with R21G, Y65D
apparent Kd (screen): 0.869 nM

B18: A19Y (designed binder)
chain: B3 chain with A19Y, Y65D
apparent Kd (screen): 10.4 nM

B19: A19S (designed binder)
chain: B3 chain with A19S, Y65D
apparent Kd (screen): 0.653 nM

B20: E46K (designed binder)
chain: B3 chain with E46K, Y65D
apparent Kd (screen): 0.593 nM

B21: Q34R (designed binder)
chain: B3 chain with Q34R, Y65D
apparent Kd (screen): 0.718 nM

B22: E9Y (designed binder)
chain: B3 chain with E9Y, Y65D
apparent Kd (screen): 1.05 nM

B23: Q48F (designed binder)
chain: B3 chain with Q48F, Y65D
apparent Kd (screen): 13.8 nM

B24: Q34C (designed binder)
chain: B3 chain with Q34C, Y65D
apparent Kd (screen): 1.05 nM

B26: Y22T (designed binder)
chain: B3 chain with Y22T, Y65D
apparent Kd (screen): 0.49 nM

B28: E44W (designed binder)
chain: B3 chain with E44W, Y65D
apparent Kd (screen): 0.539 nM

B29: T2C (designed binder)
chain: B3 chain with T2C, Y65D
apparent Kd (screen): 2.73 nM

B30: L39Q (designed binder)
chain: B3 chain with L39Q, Y65D
apparent Kd (screen): 1.27 nM

B34: T2L (designed binder)
chain: B3 chain with T2L, Y65D
apparent Kd (screen): 0.49 nM

B35: A42R (designed binder)
chain: B3 chain with A42R, Y65D
apparent Kd (screen): 2.25 nM

B36: S47Y (designed binder)
chain: B3 chain with S47Y, Y65D
apparent Kd (screen): 0.49 nM

B37: L26E (designed binder)
chain: B3 chain with L26E, Y65D
apparent Kd (screen): 0.79 nM

B38: R13P (designed binder)
chain: B3 chain with R13P, Y65D
apparent Kd (screen): 11.4 nM

B42: T2H (designed binder)
chain: B3 chain with T2H, Y65D
apparent Kd (screen): 0.869 nM

B43: E9Q (designed binder)
chain: B3 chain with E9Q, Y65D
apparent Kd (screen): 0.49 nM
